Here are results for 18 molecules from patent publication US20240174712A1, “COMPOSITIONS AND METHODS FOR PURIFYING ALPHA-1 ANTITRYPSIN USING PEPTIDE LIGANDS” (North Carolina State University, priority 2022, published 2024).

For assay [1], the target named is T1, Human Alpha-1 antitrypsin (AAT) (human, UniProt P01009 25-418).
T1 construct: Pure AAT in buffer, as used in the isotherm and breakthrough studies; also called α-1 antitrypsin; human AAT
The assay is described as follows: dynamic binding capacity at 10% breakthrough, Tris buffer pH 7.4, residence time 2 or 5 min.

The target of assay [2] is T1, Human Alpha-1 antitrypsin (AAT). The assay is described as follows: static adsorption isotherm, pure AAT in PBS pH 7.4, Langmuir fit. How it is done: (§1) Static binding capacity and affinity of peptide-Toyopearl resins. The selected sequences were synthesized on Toyopearl AF-Amino 650 M resin as described herein and evaluated via isotherm binding studies of AAT in non-competitive mode (e.g., pure AAT in PBS at pH 7.4) as described in prior work. Aliquots of 50 μL of peptide-Toyopearl resin were transferred in a tube, swollen in 20% v/v aqueous methanol, washed in MilliQ water, and finally equilibrated in PBS at pH 7.4. The resin aliquots were individually incubated with 0.5 mL of a solution of AAT at different concentrations (0.1, 0.25, 0.5, 0.75, 1.0, 1.5, 2.0, and 5.0 mg/mL) for 1.5 hrs at room temperature under gentle rotation. After incubation, the resin aliquots were centrifuged and the supernatants collected as unbound (UB) fraction; the resins were also washed with 0.5 mL of PBS for 30 min, and the supernatants were combined with the corresponding UB fractions. These were finally analyzed by Micro BCA Protein Assay kit to determine the concentration C* of unbound AAT in solution at the equilibrium with the resin, from which the amount q of bound AAT per volume of resin was determined by mass balance. The values of q vs. C* were plotted and fit using a Langmuir isotherm (Equation 1) to determine the values of maximum binding capacity (Qₘₐₓ) and affinity dissociation constant (KD)).

For assay [3] the target is unchanged. The assay is described as follows: dynamic binding capacity at 10% breakthrough, PBS pH 7.4, residence time 2 min. How it is done:
(§2) Dynamic binding capacity of peptide Toyopearl resins. The dynamic binding capacity at 10% breakthrough (DBC_{10%}, mg of AAT per mL resin) of the selected peptide-Toyopearl resins and the control AAT Select resin was measured. A volume of 0.1 mL of resin was wet packed in a Vici Jour PEEK column, washed with 10 column volumes (CVs) of 20% v/v ethanol, deionized water (3 CVs), and finally equilibrated with 10 CVs of binding buffer. The binding buffers used in this study were (i) 0.15M NaCl in 20 mM Bis-Tris HCl buffer at pH 6.0, (ii) PBS buffer at pH 7.4, and (iii and iv) 0.15M NaCl in 50 mM Tris HCl buffer at pH 7.4 or pH 8.0. A volume of 2 mL of solution of human AAT at 1 mg/mL in PBS buffer was continuously loaded on the column at the flow rate of either 0.05 mL/min (residence time, RT: 2 min) or 0.02 mL/min (RT: 5 min). After loading, the resin was washed with 10 CVs of binding buffer at the flow rate of 0.1 mL/min. AAT elution was then performed with 20 CVs of PBS in 2 M MgCl₂ at pH 7.4 at the flow rate of 0.2 mL/min. The resin was regenerated with 10 CVs of glycine buffer at pH 2.0 at the flow rate of 0.2 mL/min. The effluents were continuously monitored by UV spectrometry at 280 nm and the resulting chromatograms were utilized to calculate the DBC_{10%} of AAT.
(§3) Evaluation of AAT-binding peptides via dynamic binding measurements. Following the equilibrium binding studies, the selected peptide-Toyopearl resins were evaluated under dynamic conditions to evaluate the interplay of kinetic factors—chiefly, the AAT transport within the chromatographic particles and the formation of AAT:peptide complexes—on the resultant binding capacity. To that end, the dynamic binding capacity at 10% breakthrough (DBC_{10%}, mg of AAT per mL of resin) of the peptide-Toyopearl resins was measured at two values of residence time (RT), namely 2 and 5 min, and four different buffer compositions, namely 20 mM Bis-Tris HCl buffer (0.15M NaCl) at pH 6.0, PBS buffer at pH 7.4, and 50 mM Tris HCl buffer (0.15M NaCl) at pH 7.4 and 8.0, and compared with that of AAT Select from Cytiva (FIG. 4; the corresponding breakthrough curves are reported in FIG. 9).

Assay [4] shares this target. Put plainly: dynamic binding capacity at 10% breakthrough, PBS pH 7.4, residence time 5 min. How it is done:
as §2, §3

For assay [5], the target named is T2, human AAT (Homo sapiens, UniProt P01009).
T2 construct: purchased CSL Behring (King of Prussia, PA, USA)
Put plainly: Static binding capacity and affinity of peptide-Toyopearl resins (AAT adsorption isotherms, Langmuir fit). As to conditions: pure AAT in PBS at pH 7.4; Langmuir isotherm fit. How it is done: as §1, with “The selected sequences were synthesized on Toyopearl AF-Amino 650 M resin as described herein and evaluated via isotherm binding studies of AAT in non-competitive mode (e.g., pure AAT in PBS at pH 7.4) as described in prior work.” left out, “(Qmax)” for “(Qₘₐₓ)”
Evaluation of AAT-binding peptides via in vitro and in silico AAT binding studies. […] Toyopearl resin was selected for ligand conjunction owing to its high chemical and mechanical stability as well as low non-specific protein adsorption, which make it an ideal substrate for direct peptide conjugation and protein chromatography.

No end group written: not given here.

By Kd is commonly meant the concentration at which binding is half-saturated.

T1 sequence (P01009 25-418 limits assumed): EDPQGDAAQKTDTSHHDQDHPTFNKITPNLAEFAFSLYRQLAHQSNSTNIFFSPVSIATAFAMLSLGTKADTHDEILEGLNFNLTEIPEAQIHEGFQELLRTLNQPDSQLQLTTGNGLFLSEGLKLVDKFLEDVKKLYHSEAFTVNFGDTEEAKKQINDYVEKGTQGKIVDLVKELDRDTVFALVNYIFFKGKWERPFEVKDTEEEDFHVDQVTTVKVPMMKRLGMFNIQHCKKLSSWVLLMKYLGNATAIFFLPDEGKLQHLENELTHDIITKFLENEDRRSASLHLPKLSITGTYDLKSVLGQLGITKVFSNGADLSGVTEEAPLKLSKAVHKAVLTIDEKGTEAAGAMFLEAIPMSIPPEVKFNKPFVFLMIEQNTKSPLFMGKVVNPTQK
T2 sequence (P01009 25-418): as the sequence (P01009 25-418 limits assumed) above

For Alpha-1 Antitrypsin Select resin, the DBC10% in assay [1] came to 12 mg/mL; in assay [3] it was 12.3 mg/mL; in assay [4] it was 12.8 mg/mL. The Kd in assay [2] stood at 0.51 µM. Besides, the Qmax (mgAAT per mLR) in assay [2] is 13.5.
As for “SHWHWAG-Toyopearl: peptide ligand SHWHWAG conjugated on Toyopearl AF-Amino-650M resin (SHWHWAG-{Toyopearl AF‑Amino‑650M resin})”, the “Qmax (mgAAT per mLR)” value in assay [5] was determined as 7.0 mgAAT per mLR.
As to “KFHAWNG-Toyopearl: peptide ligand KFHAWNG conjugated on Toyopearl AF-Amino-650M resin (KFHAWNG-{Toyopearl AF‑Amino‑650M resin})”, in assay [5], the “Qmax (mgAAT per mLR)” value worked out at 8.9 mgAAT per mLR.
With “NHNKIHG-Toyopearl: peptide ligand NHNKIHG conjugated on Toyopearl AF-Amino-650M resin (NHNKIHG-{Toyopearl AF‑Amino‑650M resin})”, the “Qmax (mgAAT per mLR)” value in assay [5] is listed as 6.3 mgAAT per mLR.
Consider “KHAWIFG-Toyopearl: peptide ligand KHAWIFG conjugated on Toyopearl AF-Amino-650M resin (KHAWIFG-{Toyopearl AF‑Amino‑650M resin})”, for which the “Qmax (mgAAT per mLR)” value in assay [5] turned out to be 7.2 mgAAT per mLR.
Take SHWHWAG-{Toyopearl AF‑Amino‑650M resin} (not fully specified; printed as SHWHWAG-Toyopearl) [SHWHWAG-Toyopearl]: in assay [2], the Kd turned out to be 3.28 µM and the Qmax came to 7 mgAAT per mLR.
In the same order, the values of FSHHSWKFG-{Toyopearl AF‑Amino‑650M resin} (not fully specified; printed as FSHHSWKFG-Toyopearl) [FSHHSWKFG-Toyopearl] are 3.63 µM and 9.4 mgAAT per mLR.
As for NHNKIHG-{Toyopearl AF‑Amino‑650M resin} [NHNKIHG-Toyopearl], in assay [2], the Kd turned out to be 2.32 µM and the Qmax came out at 6.3 mgAAT per mLR.
In the case of KHAWIFG-{Toyopearl AF‑Amino‑650M resin} (not fully specified; printed as KHAWIFG-Toyopearl) [KHAWIFG-Toyopearl], in assay [2], the Kd worked out at 1.42 µM and the Qmax stood at 7.2 mgAAT per mLR.
WHAKKSKFG-{Toyopearl AF‑Amino‑650M resin} (not fully specified; printed as WHAKKSKFG-Toyopearl) [WHAKKSKFG-Toyopearl]: in assay [2], the Kd worked out at 2.09 µM and the Qmax was 12.9 mgAAT per mLR. This molecule displayed a DBC10% in assay [3] of 10.3 mg/mL. The molecule also displayed a DBC10% in assay [4] of 12.7 mg/mL.
Turning to WHAKKSHFG-{Toyopearl AF‑Amino‑650M resin} (not fully specified; printed as WHAKKSHFG-Toyopearl) [WHAKKSHFG-Toyopearl], in assay [2], the Kd came to 0.95 µM. This molecule came in with a Qmax in assay [2] of 16.3 mgAAT per mLR. Also, the figures for the DBC10% in assay [3] and in assay [4] were 9.3 mg/mL and 12.5 mg/mL, respectively.
In assay [2], ANAKIKKKG-{Toyopearl AF‑Amino‑650M resin} (not fully specified; printed as ANAKIKKKG-Toyopearl) [ANAKIKKKG-Toyopearl] had a Kd of 6.7 µM and a Qmax of 3.51 mgAAT per mLR.
In assay [2], AAHFHKG-{Toyopearl AF‑Amino‑650M resin} (not fully specified; printed as AAHFHKG-Toyopearl) [AAHFHKG-Toyopearl] had a Kd of 4.71 µM and a Qmax of 8.7 mgAAT per mLR.
As to KWKHSHKWG-{Toyopearl AF‑Amino‑650M resin} (not fully specified; printed as KWKHSHKWG-Toyopearl) [KWKHSHKWG-Toyopearl], the affinity in assay [2], expressed as Kd, was 0.63 µM. In assay [2], this molecule had a Qmax of 15.8 mgAAT per mLR. The DBC10% in assay [3] stood at 8.9 mg/mL; in assay [4], 11.6 mg/mL.
As for KFHAWNG-{Toyopearl AF‑Amino‑650M resin} (not fully specified; printed as KFHAWNG-Toyopearl) [KFHAWNG-Toyopearl], in assay [2], the Kd turned out to be 2.48 µM and the Qmax was determined as 8.9 mgAAT per mLR.
As to FEKWAKAHG-{Toyopearl AF‑Amino‑650M resin} (not fully specified; printed as FEKWAKAHG-Toyopearl) [FEKWAKAHG-Toyopearl], in assay [2], the Kd came to 4.67 µM and the Qmax was determined as 5.1 mgAAT per mLR.
In assay [2], KHSKAIAAG-{Toyopearl AF‑Amino‑650M resin} (not fully specified; printed as KHSKAIAAG-Toyopearl) [KHSKAIAAG-Toyopearl] gave a Kd of 3.62 µM and a Qmax of 9.1 mgAAT per mLR.
Consider KAWFKHWNG-{Toyopearl AF‑Amino‑650M resin} (not fully specified; printed as KAWFKHWNG-Toyopearl) [KAWFKHWNG-Toyopearl], for which, in assay [2], binding was put at a Kd of 0.87 µM and the Qmax was determined as 10.2 mgAAT per mLR.
